Columns and labels:
[1] = target: T1, recombinant human tumor necrosis factor-α (Biosource, USA) (human, UniProt P01375 77-233); assay: competitive ELISA (Friguet method), antibody pre-incubated with soluble hTNF-α, plate coated with hTNF-α
T1 construct: also called hTNF-α; TNF-α
Protocol: For antibody quantification, 100 ng of goat anti-human immunoglobulin G.A.M (Zymed Laboratories Inc., USA) was distributed into each well of a microplate (Dynatech Laboratories Inc., USA) and the well plate was kept at 4° C. overnight to coat it with the immunoglobulin. At this time, mouse monoclonal antibody TSK114 was used as a control.
Each of the reactants was added to the well plate coated with 0.4 μg of the antigen and the well plate was kept at 37° C. for about 1.5 hrs. A goat anti-human polyclonal antibody (BioRad, USA) conjugated with horseradish peroxidase was diluted at a ratio of 1:1000 and 100 μl of the diluted antibody solution was added to each well. The well plate was kept at 37° C. for 1 hr. After the reaction was completed, the optical density of each well was measured using a horseradish peroxidase substrate kit (BioRad, USA).
Concentrations of the antibody bound to the antigen and the unbound antibody were calculated from the measured optical density, and antigen-binding affinity of the humanized antibodies were determined therefrom (Friguet B. et al., J. Immunol. Meth., 77: 305-319, 1985).

[2] = target: T1, recombinant human tumor necrosis …; assay: cell-based or functional assay
[3] = target: T1, recombinant human tumor necrosis …; assay: SPR (Biacore2000), hTNF-α immobilized on CM5 chip, antibody 25-400 nM as analyte
Protocol: (§1) Then, association and dissociation constants of the reactions were measured by Biacore2000 (Biacore, Sweden).

[4] = target: T1, recombinant human tumor necrosis …; assay: SPR (Biacore2000), hTNF-α immobilized
Protocol: as §1

T1 sequence (P01375 77-233 limits assumed): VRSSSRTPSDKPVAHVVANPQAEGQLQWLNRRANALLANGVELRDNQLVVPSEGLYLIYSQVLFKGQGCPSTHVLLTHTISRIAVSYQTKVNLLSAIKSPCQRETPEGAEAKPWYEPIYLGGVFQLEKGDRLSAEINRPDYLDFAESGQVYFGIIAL

Binder | Kd [1] [nM] | IC50 (concentration of the antibodies inhibiting cell death by 50%), WHEI 164 cells, MTT [2] [ng/mL] | Kd [3] [nM] | koff [3] [s⁻¹] | kon [3] [M⁻¹ s⁻¹] | fold higher antigen binding affinity than mouse monoclonal antibody TSK114 [4] [fold]
humanized antibody YHB1411 (antibody, V domains shown, Human heavy and kappa light constant regions come from pHAB-HC and pHAB-KC) VH: QVQLVQSGPELKKPGASVKVSCKASGYTFTHYGMNWVRQAPGKGLEWMGWINTNTGEPRYDEEFKGRVTMTRDTSASTAYMELSSLRSEDTAVYYCARYDSRGFDCWGQGTTVTVSS VL: QIVMTQSPSSLSASVGERVTITCTASSSISYNYFHWYQQKPGSAPKLWIYSSSNLASGVPSRFSGSGSGTDFTFTISSLQPEDIATYYCHQYERSPWTFGGGTKVEIKR | 0.2 | 6.7 | – | – | – | –
humanized antibody YHB1406-2 (antibody, V domains shown, Human heavy and kappa light constant regions come from pHAB-HC and pHAB-KC) VH: QVQLVQSGPELKKPGASVKVSCKASGYTFTHYGMNWVRQAPGKGLEWMGWINTNTGEPRYDEEFKGRVTMTRDTSASTAYMELSSLRSEDTAVYYCARYDSRGFDCWGQGTTLTVSS VL: DIVMTQSPSSLSASVGERVTITCTASSSISYNYFHWYQQKPGSAPKLWIYSSSNLASGVPSRFSGSGSGTDFTFTISSLQPEDIATYYCHQYERSPWTFGGGTKVEIKR | 0.29 | 6.5 | – | – | – | –
humanized antibody YHB1406 (antibody, V domains shown, Human heavy chain constant region comes from vector pHAB-HC and human kappa light chain constant region from pHAB-KC) VH: QVQLVQSGPELKKPGASVKVSCKASGYTFTHYGMNWVRQAPGQGLEWMGWINTNTGEPRYDEEFKGRVTMTRDTSASTAYMELSSLRSEDTAVYYCARYDSRGFDCWGQGTTVTVSS VL: QIVMTQSPSSLSASVGERVTITCTASSSISYNYFHWYQQKPGSAPKLWIYSSSNLASGVPSRFSGSGSGTDFTFTISSLQPEDIATYYCHQYERSPWTFGGGTKVEIKR | 0.22 | 9.2 | – | – | – | –
humanized antibody YHB1411-2 (antibody, V domains shown, Human heavy and kappa light constant regions come from pHAB-HC and pHAB-KC; also called YBB1411-2) VH: QVQLVQSGPELKKPGASVKVSCKASGYTFTHYGMNWVRQAPGKGLEWMGWINTNTGEPRYDEEFKGRVTMTRDTSASTAYMELSSLRSEDTAVYYCARYDSRGFDCWGQGTTVTVSS VL: DIVMTQSPSSLSASVGERVTITCTASSSISYNYFHWYQQKPGSAPKLWIYSSSNLASGVPSRFSGSGSGTDFTFTISSLQPEDIATYYCHQYERSPWTFGGGTKVEIKR | 0.2 | 5.5 | 0.00171 | 6.8e-08 | 39600 | ~3
mouse monoclonal antibody TSK114 (antibody, V domains shown, Mouse monoclonal antibody (deposits KCTC 10514BP and KCTC 10515BP); also called Mouse antibody TSK114) VH: QVQLVQSGPELKKPGETVKISCKASGYTFTHYGMNWVKQAPGEGLKWMGWINTNTGEPRYDEEFKGRFAFSLETSASTAYLQINNLRREDTATYFCARYDSRGFDCWGQGTTLTVSS VL: QIVLTQSPAIMSASLGERVTMTCTASSSISYNYFHWYQQRPGSSPKLWIYSSSNLASGVPPRISGSGSGTSYSLTISSMEAEDAATYYCHQYERSPWTFGGGTKLEIKR | 0.14 | 4.7 | 0.00579 | 2.39e-07 | 41200 | –

Reference: patent US20080008703A1 (YUHAN, published 2008)
